The results in this text go back to PMC4783868 (Nature, 2015).

The test concerns the target T1, PB1 subunit of the influenza C/Johannesburg/1/1966 virus polymerase (FluPolC) (influenza C/Johannesburg/1/1966 virus, UniProt Q9IMP4).
T1 sequence: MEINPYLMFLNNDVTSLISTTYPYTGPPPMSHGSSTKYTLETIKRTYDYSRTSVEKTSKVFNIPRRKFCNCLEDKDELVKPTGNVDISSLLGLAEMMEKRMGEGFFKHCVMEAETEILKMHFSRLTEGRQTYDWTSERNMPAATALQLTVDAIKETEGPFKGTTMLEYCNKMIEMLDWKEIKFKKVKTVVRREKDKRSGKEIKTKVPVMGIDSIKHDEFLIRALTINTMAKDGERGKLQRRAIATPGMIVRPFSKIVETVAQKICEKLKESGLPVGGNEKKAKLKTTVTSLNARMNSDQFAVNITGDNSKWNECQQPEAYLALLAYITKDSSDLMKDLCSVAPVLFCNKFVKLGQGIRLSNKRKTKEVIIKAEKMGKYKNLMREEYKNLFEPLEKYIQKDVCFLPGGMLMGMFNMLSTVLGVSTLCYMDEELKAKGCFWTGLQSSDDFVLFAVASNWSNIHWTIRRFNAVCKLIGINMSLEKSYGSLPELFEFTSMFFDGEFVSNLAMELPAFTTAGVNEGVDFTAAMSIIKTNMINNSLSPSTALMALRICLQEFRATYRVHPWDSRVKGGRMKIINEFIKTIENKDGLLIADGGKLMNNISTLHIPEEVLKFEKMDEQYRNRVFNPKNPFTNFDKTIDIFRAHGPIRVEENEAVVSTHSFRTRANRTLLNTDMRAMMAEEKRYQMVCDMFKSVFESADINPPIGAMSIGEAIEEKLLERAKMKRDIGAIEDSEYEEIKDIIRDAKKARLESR
Nature of the test: crystal structure.

B1: P3 subunit of the influenza C/Johannesburg/1/1966 virus polymerase (FluPolC) (natural protein)
chain: MSKTFAEIAEAFLEPEAVRIAKEAVEEYGDHERKIIQIGIHFQVCCMFCDEYLSTNGSDRFVLIEGRKRGTAVSLQNELCKSYDLEPLPFLCDIFDREEKQFVEIGITRKADDSYFQSKFGKLGNSCKIFVFSYDGRLDKNCEGPMEEQKLRIFSFLATAADFLRKENMFNEIFLPDNEETIIEMKKGKTFLELRDESVPLPFQTYEQMKDYCEKFKGNPRELASKVSQMQSNIKLPIKHYEQNKFRQIRLPKGPMAPYTHKFLMEEAWMFTKISDPERSRAGEILIDFFKKGNLSAIRPKDKPLQGKYPIHYKNLWNQIKAAIADRTMVINENDHSEFLGGIGRASKKIPEISLTQDVITTEGLKQSENKLPEPRSFPRWFNAEWMWAIKDSDLTGWVPMAEYPPADNELEDYAEHLNKTMEGVLQGTNCAREMGKCILTVGALMTECRLFPGKIKVVPIYARSKERKSMQEGLPVPSEMDCLFGICVKSKSHLNKDDGMYTIITFEFSIREPNLEKHQKYTVFEAGHTTVRMKKGESVIGREVPLYLYCRTTALSKIKNDWLSKARRCFITTMDTVETICLRESAKAEENLVEKTLNEKQMWIGKKNGELIAQPLREALRVQLVQQFYFCIYNDSQLEGFCNEQKKILMALEGDKKNKSSFGFNPEGLLEKIEECLINNPMCLFMAQRLNELVIEASKRGAKFFKTD
Regarding B1, the binding result was “binds”.
